The data set is described as follows: yeast display, Sf9 membrane polyspecificity reagent, FACS + sequencing; frameworks hold sequencing errors. The method in brief:
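In a synthetic yeast display library (Saccharomyces cerevisiae BJ5465), nanobody expression was induced with galactose for 36–48 hours. FACS gates were set low and high (top ~1%) using anti-HA fluorescence for expression and streptavidin fluorescence for binding of the Sf9 membrane reagent. Each polyreactivity label is drawn from the gate of origin.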
As to “QVQLVESGGGLVQAGGSLRLSCAASGGIFPFYAMGWDRQAPGKERELVAVITSSGGSTFYSDSVKGRFTISRDNAKNTVYLQMNSLKPEDTAVYYGNARRVSREIWYGATGNDYWGQGTQGTVSS”, the “polyreactivity (PSR sort gate)” value is recorded as “low polyreactivity”.
For the sequence “QVQLVESGGGLVQAGGSLRLSCAASGGIFPFYAMGWYRQAPGKERELVAAISGIGDSTYYADSVKGRFTISRDNAKNTVYLQMNSLKPEDTAVYYCAREFSDGLSGKFDYWGQGTQVTVSS”, the “polyreactivity (PSR sort gate)” value is “low polyreactivity”.
Next, “QVQLVESGGGLVQAGGSLRLSCAASGGIFPTYVMGWYRQAPGKERELVAAIDRNGTSTTYADSVKGRFTISRDYAKNTVYLQMNSLKPEDTAVYYCAAGYNDQTSAYDYWGQGTQVTVSS”: “low polyreactivity”.
Regarding “QVQLVESGGGLVQAGGSLRLSCAASGGIFRFNAMAWYRQAPGKERELVAAINRGGSTDYADSVKGRFTSSRDNAKNTVYLQMNSLKPEDTAVYYCAADYEYRPKTRDGYYWGQGTQVTVSS”, the “polyreactivity (PSR sort gate)” value is recorded as “low polyreactivity”.
With “QVQLVESGGGLVQAGGSLRLSCAASGGIFRGYAMGWYRQAPGKERELVATSRSSGRTNYADSVKGRFTISRDNAKNTVYLQMNSLKPEDTAVYFCNKRRWWQYDSWGDWVLGGDDYWGQGTQVTVSS”, the “polyreactivity (PSR sort gate)” value is “low polyreactivity”.
For the sequence “QVQLVESGGGLVQAGGSLRLSCAASGGIFRIYAMGGYRQAPGKERELVAAISRSGGTTYYADSVKGRFTISRDNAKNTVDLQMNSLKPEDTAVYYCNARYYQSRHVNDVPNYYWGHGTQVTVSS”, the “polyreactivity (PSR sort gate)” value is recorded as “high polyreactivity”.
Take “QVQLVESGGGLVQAGGSLRLSCAASGGIFRIYAMGWYRQAPGKERELVASISRSGGRTYYADSVKGRFTISRDNAKNTVYLQMNSLKPEDTAVYYCAVSLQGYNQVDYYYWGQGTQVTVSS”: the “polyreactivity (PSR sort gate)” value is “high polyreactivity”.
Take “QVQLVESGGGLVQAGGSLRLSCAASGGIFRVYAMGWYRQAPGKERELVAAISRSGSSTYYADSVKGRFTISRDNAKNTVYLQMTSLKPEDTAVYYCNAYSQYWLGNNYWGQGTQVTLSS”: the “polyreactivity (PSR sort gate)” value is given as “high polyreactivity”.
Consider “QVQLVESGGGLVQAGGSLRLSCAASGGIFRYSAMGWYRQAPGKERELVATDGDTYYADSVKGRFTISRDNAKNTVYLQLNSLKPEDTAVYYCAAEPVRYYAMEYWGQGTQVTVSS”, for which the “polyreactivity (PSR sort gate)” value was “low polyreactivity”.
Consider “QVQLVESGGGLVQAGGSLRLSCAASGGIFRYYAMGWYRQAPGKERELVAAISRSGDSTYYADSVKGRFTISRDNAKNTVYLQMNSLKPEDTAVYYCAATRLYWKIFYGDGDYWGQGTQVTVSS”, for which the “polyreactivity (PSR sort gate)” value was “high polyreactivity”.
Regarding “QVQLVESGGGLVQAGGSLRLSCAASGGIFSPNAMGWYRQAPGKERELVAGITFSGGSTYYADSVKGRFTISRDNAKTTVYLQMNSLKPEDTAVYYCNARVPPQGWGPWKAFDYWGQGTQVTVSS”, the “polyreactivity (PSR sort gate)” value was “low polyreactivity”.
As to “QVQLVESGGGLVQAGGSLRLSCAASGGIFSRNAMGWSRQAPGKERELVAAISSGGSTYYADSVKGRFTISRDNAKNTVYLQMNTLKPEDTAVYYCAAKRSGQRTLLGYWGQGTQVTVSS”, the “polyreactivity (PSR sort gate)” value is “high polyreactivity”.
For “QVQLVESGGGLVQAGGSLRLSCAASGGIFSYAMGWYRQAPGKERELVADINSDGSTTYADSVKGRFTISRDNAKNTVYLQMNSLKPEDTAVYYCAVDVSVNWPLLERYEYWGQGTQVTVSS”, the “polyreactivity (PSR sort gate)” value is “low polyreactivity”.
With “QVQLVESGGGLVQAGGSLRLSCAASGGIFSYYAMGWYRQAPGKEREFVAAIDWGGGSTYYADSVKGRFTISRDNAKNTVYLQMNSLKPEDTAVYYCAAEIYPIGWDDYDYWGQGTQVTVSS”, the “polyreactivity (PSR sort gate)” value is “low polyreactivity”.
In the case of “QVQLVESGGGLVQAGGSLRLSCAASGGIFTDYTMGWYRQAPGKERELVAAITWTGGSTYYADSVKGRFTISRDNAKNSVYLQMNSLKPEDTAVYYCAADEYWVNLDYWGQGTQVTVSS”, the “polyreactivity (PSR sort gate)” value was “low polyreactivity”.
Next, “QVQLVESGGGLVQAGGSLRLSCAASGGIFTGNAMGWYRQAPGKERELVAAINRRTGSTYYADSVKGRFTISRDNAKNTVYLQMNSLKPEDTAVYYCATRRYRSYTYDYWGQGTQVTVSS”: “high polyreactivity”.

Source of the values: the nanobody polyreactivity screen of Harvey et al. (2022).
